Values quoted from earlier work in article PMC9453958.

Target: His64 (UniProt position 63, ILNNGHAFNVE)
Assay: kinetics
Conditions: wild-type zinc enzyme during catalysis

## Carbonic anhydrase II (HCA II) (Homo sapiens)
  pKa: 7.2 ± 0.1
